Laboratory results published in US20020147999A1.

What was measured:
Test in all cases: cell-based or functional assay
[1] = biological target: apoE cleavage enzyme (chymotrypsin-like serine protease; in mouse brain lysate or roughly/partially purified)
[2] = biological target: p-tau (phosphorylated microtubule-associated protein tau), mouse, endogenous in Neuro-2a cells and mouse brain (mouse) (UniProt P10637)
[3] = biological target: p-NF-H (phosphorylated neurofilament protein of high molecular weight), mouse, endogenous in Neuro-2a cells (mouse) (UniProt P19246)
Sequence of p-NF-H (phosphorylated neurofilament protein of high molecular weight), mouse, endogenous in Neuro-2a cells (mouse) (P19246 whole entry): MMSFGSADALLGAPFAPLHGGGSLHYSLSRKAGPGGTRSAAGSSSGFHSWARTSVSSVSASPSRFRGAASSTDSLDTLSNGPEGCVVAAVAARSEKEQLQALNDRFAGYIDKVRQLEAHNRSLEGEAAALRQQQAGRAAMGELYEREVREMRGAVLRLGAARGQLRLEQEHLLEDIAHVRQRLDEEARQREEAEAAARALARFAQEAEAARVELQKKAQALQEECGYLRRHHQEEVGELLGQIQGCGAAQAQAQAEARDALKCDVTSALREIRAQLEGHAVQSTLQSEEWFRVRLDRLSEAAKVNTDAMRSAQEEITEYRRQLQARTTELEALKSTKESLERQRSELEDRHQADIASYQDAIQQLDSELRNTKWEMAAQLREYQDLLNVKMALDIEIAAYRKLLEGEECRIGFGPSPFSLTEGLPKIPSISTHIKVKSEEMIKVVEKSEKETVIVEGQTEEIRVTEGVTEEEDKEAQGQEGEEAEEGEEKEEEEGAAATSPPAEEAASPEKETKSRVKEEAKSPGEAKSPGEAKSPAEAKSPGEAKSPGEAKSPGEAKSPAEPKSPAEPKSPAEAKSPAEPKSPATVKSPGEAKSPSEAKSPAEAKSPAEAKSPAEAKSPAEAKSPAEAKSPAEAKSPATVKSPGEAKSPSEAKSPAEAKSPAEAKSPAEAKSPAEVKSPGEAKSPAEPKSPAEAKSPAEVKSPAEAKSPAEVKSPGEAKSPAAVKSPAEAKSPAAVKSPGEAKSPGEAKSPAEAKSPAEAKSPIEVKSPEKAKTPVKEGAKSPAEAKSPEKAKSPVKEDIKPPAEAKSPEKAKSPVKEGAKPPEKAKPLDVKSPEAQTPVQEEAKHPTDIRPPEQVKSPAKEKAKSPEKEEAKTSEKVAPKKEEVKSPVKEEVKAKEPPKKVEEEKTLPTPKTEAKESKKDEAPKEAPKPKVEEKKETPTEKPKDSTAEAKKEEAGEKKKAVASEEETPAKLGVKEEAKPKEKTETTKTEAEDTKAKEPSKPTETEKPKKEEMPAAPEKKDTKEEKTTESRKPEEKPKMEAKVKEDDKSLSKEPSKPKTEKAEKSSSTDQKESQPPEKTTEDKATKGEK

Sequence of p-tau (phosphorylated microtubule-associated protein tau), mouse, endogenous in Neuro-2a cells and mouse brain (mouse) (P10637 other isoform, or with tags, fused parts or gaps limits assumed): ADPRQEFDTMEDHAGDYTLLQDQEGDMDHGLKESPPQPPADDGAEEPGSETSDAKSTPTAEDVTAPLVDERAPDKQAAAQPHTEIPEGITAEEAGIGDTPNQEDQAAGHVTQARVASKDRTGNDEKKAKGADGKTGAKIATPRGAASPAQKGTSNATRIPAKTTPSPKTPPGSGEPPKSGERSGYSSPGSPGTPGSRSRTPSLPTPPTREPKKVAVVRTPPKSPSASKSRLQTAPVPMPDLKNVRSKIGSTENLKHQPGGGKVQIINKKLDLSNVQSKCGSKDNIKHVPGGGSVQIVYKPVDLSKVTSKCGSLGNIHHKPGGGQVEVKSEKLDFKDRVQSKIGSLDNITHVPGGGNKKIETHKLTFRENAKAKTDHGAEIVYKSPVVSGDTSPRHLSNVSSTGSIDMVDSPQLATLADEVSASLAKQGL

inhibition of apoE cleavage enzyme activity (chromogenic assay, 1 mM Ala-Ala-Pro-Phe-p-nitroanilide; 7 µM apoE4) [1] [%] | transfected cells displaying the intracellular filamentous inclusions [2] [%] | transfected cells displaying the intracellular filamentous inclusions [3] [%] | Substance
89 |  |  | purified human apoE4 (full-length) (from UniProt P02649 19-317)
 | 78 | 78 | apoE4(Δ272-299), expressed in transfected cells (pFLAG-CMV-3 vector, secretory pathway, N-terminal FLAG) (from UniProt P02649 19-289)
 | 32 | 32 | apoE3(Δ272-299), expressed in transfected cells (pFLAG-CMV-3 vector, secretory pathway, N-terminal FLAG) (from UniProt P02649 19-289)
